The target of one data set is F2633 (artificial (human zinc finger domains)). Put plainly: cell_activity; endogenous VEGF-A conc., unit not given; parental vector 400. The conditions noted are these: tags: HA, NLS, p65.
In another data set the target is F2679 (artificial (human zinc finger domains)). The experiment in a line: cell_activity; endogenous VEGF-A conc., unit inferred; parental vector 400. As to conditions: tags: HA, NLS, p65.
Another data set has as its target F2612 (artificial (human zinc finger domains)). The data set is described as above. As to conditions: tags: HA, NLS, p65.
For another data set, the target named is F2650 (artificial (human zinc finger domains)). The experiment in a line: cell_activity; endogenous VEGF-A conc., unit not given; parental vector 400. The conditions noted are these: tags: HA, NLS, p65.
Sequence of F2650 (artificial (human zinc finger domains)) (chain, as listed by the source): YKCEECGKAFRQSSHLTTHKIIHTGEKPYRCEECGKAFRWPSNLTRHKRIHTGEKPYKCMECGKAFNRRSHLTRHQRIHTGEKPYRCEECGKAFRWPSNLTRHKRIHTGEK
The target of another data set is F480 (artificial (human zinc finger domains)). The description is as above.
Sequence of F480 (artificial (human zinc finger domains)) (chain, as listed by the source): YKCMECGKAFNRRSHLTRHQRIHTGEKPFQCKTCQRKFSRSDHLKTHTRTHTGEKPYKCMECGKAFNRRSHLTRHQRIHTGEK
The next data set has as its target F109-KRAB (artificial (human zinc finger domains)). The experiment in a line: cell_activity; luciferase reporter with native VEGF promoter -950 to +450, 293 cells, 30 ng plasmid. The conditions noted are these: tags: HA, NLS. How it is done:
(§1) Human embryonic kidney 293 cells were maintained in Dulbecco's modified Eagle medium (DMEM) supplemented with 100 units/ml penicillin, 100 μg/ml streptomycin, and 10% fetal bovine serum (FBS). For the luciferase assay, 10⁴ cells/well were pre-cultured in a 96-well plate. Using a LIPOFECTAMINE™ transfection kit (Life Technologies, Rockville, Md.), 293 cells were transfected with 25 ng of a reporter plasmid in which the native VEGF-A promoter was fused to the luciferase gene in pGL3-basic (Promega), and 25 ng of a plasmid encoding a zinc finger protein. After 48 h of incubation, luciferase activity was measured with a DUAL LUCIFERASE™ assay kit (Promega) using a TD-20/20 luminometer (Turner Designs Inc., Sunnyvale, Calif.).
(§2) 293 cells were transfected with luciferase reporter plasmid pGL3-VEGFprom containing native human VEGF promoter(−950 to +450 from the transcription initiation site) and 30 ng of pLFD-F121-KRAB or pLFD-F109-KRAB. Luciferase activity was measured as described. Fold repression values were calculated by normalizing the firefly luciferase activity against the renilla luciferase activity and the result was compared with that of the control wherein 293 cells were transfected with the control vector pLFD and the reporter plasmid.
(In general: In a reporter assay the amount or activity of a reporter protein is the signal.)

Another data set deals with F2638 (artificial (human zinc finger domains)). The experiment in a line: cell_activity; endogenous VEGF-A conc., unit not given; parental vector 400. As to conditions: tags: HA, NLS, p65.
Sequence of F2638 (artificial (human zinc finger domains)) (chain, as listed by the source): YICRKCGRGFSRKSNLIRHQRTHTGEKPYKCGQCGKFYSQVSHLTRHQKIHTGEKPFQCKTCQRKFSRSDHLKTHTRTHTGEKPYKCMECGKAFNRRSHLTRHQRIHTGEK
In a further data set the target is F2615 (artificial (human zinc finger domains)). The data set is described as above. As to conditions: tags: HA, NLS, p65.
Sequence of F2615 (artificial (human zinc finger domains)) (chain, as listed by the source): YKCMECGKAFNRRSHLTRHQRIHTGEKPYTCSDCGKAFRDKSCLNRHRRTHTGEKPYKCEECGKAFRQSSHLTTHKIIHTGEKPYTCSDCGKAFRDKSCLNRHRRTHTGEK
The next data set addresses F2607 (artificial (human zinc finger domains)). Put plainly: cell_activity; endogenous VEGF-A conc., unit inferred; parental vector 400. As to conditions: tags: HA, NLS, p65.
A further data set has as its target F475 (artificial (human zinc finger domains)). Put plainly: cell_activity; endogenous VEGF-A conc., unit not given; parental vector 400.
The target of the next data set is F2604 (artificial (human zinc finger domains)). Described as above. The conditions noted are these: tags: HA, NLS, p65.
Sequence of F2604 (artificial (human zinc finger domains)) (chain, as listed by the source): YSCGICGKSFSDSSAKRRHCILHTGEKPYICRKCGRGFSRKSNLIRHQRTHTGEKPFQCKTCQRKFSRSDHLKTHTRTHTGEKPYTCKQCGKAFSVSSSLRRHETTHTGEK
For another data set, the target named is F2605 (artificial (human zinc finger domains)). The description is as above. The conditions noted are these: tags: HA, NLS, p65.
Sequence of F2605 (artificial (human zinc finger domains)) (chain, as listed by the source): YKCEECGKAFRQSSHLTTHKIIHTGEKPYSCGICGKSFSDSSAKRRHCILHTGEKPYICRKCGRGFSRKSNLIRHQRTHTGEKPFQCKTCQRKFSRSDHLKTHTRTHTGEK
Another data set addresses F121-KRAB (artificial (human zinc finger domains)). The experiment in a line: cell_activity; luciferase reporter with native VEGF promoter -950 to +450, 293 cells, 30 ng plasmid. The conditions noted are these: tags: HA, NLS. How it is done:
as §1, §2

For a further data set, the target named is F121 (artificial (human zinc finger domains)). Put plainly: cell_activity; endogenous VEGF-A conc., unit inferred; parental vector 400.
Sequence of F121 (artificial (human zinc finger domains)) (chain, as listed by the source): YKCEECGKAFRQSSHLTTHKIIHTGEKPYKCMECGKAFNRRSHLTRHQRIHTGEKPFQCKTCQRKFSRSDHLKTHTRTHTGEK
A further data set deals with F2610 (artificial (human zinc finger domains)). The experiment in a line: cell_activity; endogenous VEGF-A conc., unit not given; parental vector 400. The conditions noted are these: tags: HA, NLS, p65.
Sequence of F2610 (artificial (human zinc finger domains)) (chain, as listed by the source): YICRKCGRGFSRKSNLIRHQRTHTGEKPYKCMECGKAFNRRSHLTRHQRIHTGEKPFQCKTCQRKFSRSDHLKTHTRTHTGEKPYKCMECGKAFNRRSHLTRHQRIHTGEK
The target of the next data set is F2646 (artificial (human zinc finger domains)). The description is as above. The conditions noted are these: tags: HA, NLS, p65.
Sequence of F2646 (artificial (human zinc finger domains)) (chain, as listed by the source): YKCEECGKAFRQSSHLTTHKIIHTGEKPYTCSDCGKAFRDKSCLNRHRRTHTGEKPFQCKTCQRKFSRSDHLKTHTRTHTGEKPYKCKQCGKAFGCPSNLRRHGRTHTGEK
For the next data set, the target named is F2644 (artificial (human zinc finger domains)). The data set is described as above. As to conditions: tags: HA, NLS, p65.
Sequence of F2644 (artificial (human zinc finger domains)) (chain, as listed by the source): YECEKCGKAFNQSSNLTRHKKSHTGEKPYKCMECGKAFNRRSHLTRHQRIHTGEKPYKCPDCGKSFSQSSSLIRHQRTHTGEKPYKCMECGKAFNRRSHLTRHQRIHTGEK
The next data set addresses F2634 (artificial (human zinc finger domains)). Described as above. The conditions noted are these: tags: HA, NLS, p65.

Results on 17 molecules are retold here after patent publication US20050032186, “Regulatory zinc finger proteins” (published 2005).

Sequence of F2634 (artificial (human zinc finger domains)) (chain, as listed by the source): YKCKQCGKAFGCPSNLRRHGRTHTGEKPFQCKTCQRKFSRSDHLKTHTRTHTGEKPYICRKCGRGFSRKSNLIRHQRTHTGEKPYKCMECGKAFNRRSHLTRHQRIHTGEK
Sequence of F2679 (artificial (human zinc finger domains)) (chain, as listed by the source): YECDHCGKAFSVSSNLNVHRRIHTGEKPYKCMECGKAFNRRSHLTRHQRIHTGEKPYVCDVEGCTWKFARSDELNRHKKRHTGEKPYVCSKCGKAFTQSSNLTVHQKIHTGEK
Sequence of F109-KRAB (artificial (human zinc finger domains)) (chain, as listed by the source): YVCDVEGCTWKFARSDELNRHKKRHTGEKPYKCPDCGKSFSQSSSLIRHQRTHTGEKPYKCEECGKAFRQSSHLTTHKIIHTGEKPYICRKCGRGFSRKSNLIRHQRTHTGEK
Sequence of F2607 (artificial (human zinc finger domains)) (chain, as listed by the source): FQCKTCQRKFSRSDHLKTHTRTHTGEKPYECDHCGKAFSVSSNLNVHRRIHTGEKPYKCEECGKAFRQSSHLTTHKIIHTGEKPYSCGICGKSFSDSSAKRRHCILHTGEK
Sequence of F475 (artificial (human zinc finger domains)) (chain, as listed by the source): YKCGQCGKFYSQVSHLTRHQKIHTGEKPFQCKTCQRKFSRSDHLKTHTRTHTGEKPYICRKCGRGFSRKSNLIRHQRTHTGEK
Sequence of F2612 (artificial (human zinc finger domains)) (chain, as listed by the source): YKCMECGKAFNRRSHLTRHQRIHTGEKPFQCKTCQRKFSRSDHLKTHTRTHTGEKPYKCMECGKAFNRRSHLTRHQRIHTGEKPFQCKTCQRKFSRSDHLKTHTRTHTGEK
Sequence of F2633 (artificial (human zinc finger domains)) (chain, as listed by the source): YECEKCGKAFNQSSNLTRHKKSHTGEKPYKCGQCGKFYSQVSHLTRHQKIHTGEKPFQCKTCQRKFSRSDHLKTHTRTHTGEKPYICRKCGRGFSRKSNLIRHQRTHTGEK

B1: VEGF-A -455 (12 bp) (dsDNA)
DNA 1: GAGCGGGGAGAA
DNA 2: TTCTCCCCGCTC
Take B1: in the data set with F2633, the activity stood at 4500.

B2: VEGF-A +244R (dsDNA)
DNA 1: CAAGTGGGGAAT
DNA 2: ATTCCCCACTTG
Take B2: the activity in the data set with F2679 was 1500 pg/mL.

B3: VEGF-A -630R (dsDNA)
DNA 1: AGGGGGTGGGGG
DNA 2: CCCCCACCCCCT
In the case of B3, the activity with F2612 came to 2000 pg/mL.

B4: VEGF-A -206 (dsDNA)
DNA 1: GGTGGGGGTCGA
DNA 2: TCGACCCCCACC
Take B4: the activity with F2650 was found to be 4400.

B5: VEGF-A -633R (9 bp) (dsDNA)
DNA 1: GGGTGGGGG
DNA 2: CCCCCACCC
For B5, the activity with F480 amounted to 3100.

B6: VEGF-A -536 (dsDNA)
DNA 1: GAGCGAGCAGCG
DNA 2: CGCTGCTCGCTC
B6 returned an activity with F109-KRAB of 6.1 fold repression.

B7: VEGF-A -391R (12 bp) (dsDNA)
DNA 1: GGGTGGGGAGAG
DNA 2: CTCTCCCCACCC
In the case of B7, in the data set with F2638, the activity was 1900.

B8: VEGF-A -606 (dsDNA)
DNA 1: GCCAGAGCCGGG
DNA 2: CCCGGCTCTGGC
Regarding B8, the activity with F2615 came out at 2700.

B9: VEGF-A -671 (dsDNA)
DNA 1: GTCAGAAATAGG
DNA 2: CCTATTTCTGAC
In the case of B9, the activity in the data set with F2607 was 1600 pg/mL.

B10: VEGF-A -455 (9 bp) (dsDNA)
DNA 1: GAGCGGGGA
DNA 2: TCCCCGCTC
Consider B10, for which the activity in the data set with F475 amounted to 4150.

B11: VEGF-A -680 (dsDNA)
DNA 1: GTTTGGGAGGTC
DNA 2: GACCTCCCAAAC
Regarding B11, in the data set with F2604, the activity was determined as 1000.

B12: VEGF-A -677 (dsDNA)
DNA 1: TGGGAGGTCAGA
DNA 2: TCTGACCTCCCA
In the case of B12, the activity in the data set with F2605 was 3700.

B13: VEGF-A +434 (dsDNA)
DNA 1: TGGGGGTGA
DNA 2: TCACCCCCA
As for B13, the activity was determined as 8.7 fold repression with F121-KRAB and 1300 pg/mL in the data set with F121.

B14: VEGF-A -633R (12 bp) (dsDNA)
DNA 1: GGGTGGGGGGAG
DNA 2: CTCCCCCCACCC
For the molecule B14, the activity with F2610 is 2300.

B15: VEGF-A -314R (dsDNA)
DNA 1: GACAGGGCCTGA
DNA 2: TCAGGCCCTGTC
As for B15, the activity with F2646 is 3400.

B16: VEGF-A -358R (dsDNA)
DNA 1: GGGGCAGGGGAA
DNA 2: TTCCCCTGCCCC
Take B16: the activity with F2644 was 4200.

B17: VEGF-A -395R (dsDNA)
DNA 1: GGGGAGAGGGAC
DNA 2: GTCCCTCTCCCC
In the case of B17, the activity with F2634 is 2100.
